Data: paper PMC3974974

Tests used:
Test in all cases: SPR; SIRPα variants immobilized via a biotin tag on a streptavidin-coated CM5 chip, BIAcore 3000, 37 °C; dilutions of soluble monomeric CD47 (0.05 to 25.7 μM) injected; KD from equilibrium binding; purification of the variants from 293T not told
[1] = target: SIRPα variant v2, three Ig superfamily domains linked to rat CD4d3 and -4 and a biotinylation sequence (human)
[2] = target: SIRPα variant v7, three Ig superfamily domains linked to rat CD4d3 and -4 and a biotinylation sequence (human)
Sequence of SIRPα variant v7, three Ig superfamily domains linked to rat CD4d3 and -4 and a biotinylation sequence (human) (P78324 31-504, stated change not applied): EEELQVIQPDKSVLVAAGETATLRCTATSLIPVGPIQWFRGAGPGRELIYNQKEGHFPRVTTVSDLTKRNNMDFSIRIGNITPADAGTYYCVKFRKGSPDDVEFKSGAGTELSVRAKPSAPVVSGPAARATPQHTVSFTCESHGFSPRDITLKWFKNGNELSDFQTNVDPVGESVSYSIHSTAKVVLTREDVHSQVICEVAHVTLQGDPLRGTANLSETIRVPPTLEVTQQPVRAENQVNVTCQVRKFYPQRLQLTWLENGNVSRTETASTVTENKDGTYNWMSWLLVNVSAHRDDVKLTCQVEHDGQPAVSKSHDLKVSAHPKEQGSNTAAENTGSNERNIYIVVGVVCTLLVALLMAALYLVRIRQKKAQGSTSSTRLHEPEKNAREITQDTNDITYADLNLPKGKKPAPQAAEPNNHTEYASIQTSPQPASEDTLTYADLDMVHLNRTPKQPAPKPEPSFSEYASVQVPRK

[3] = target: SIRPα variant v5, three Ig superfamily domains linked to rat CD4d3 and -4 and a biotinylation sequence (human)
Sequence of SIRPα variant v5, three Ig superfamily domains linked to rat CD4d3 and -4 and a biotinylation sequence (human) (P78324 31-504, stated change not applied): as above

[4] = target: SIRPα variant v10, three Ig superfamily domains linked to rat CD4d3 and -4 and a biotinylation sequence (human)
[5] = target: SIRPα variant v1, three Ig superfamily domains linked to rat CD4d3 and -4 and a biotinylation sequence (human)

In the case of “Recombinant CD47 Ig superfamily domain (from UniProt Q08722 19-136) (domain or fragment)”, the Kd [1] is reported as 0.64 µM, the Kd [2] is reported as 0.65 µM and the Kd [3] is reported as 0.78 µM. It also gave a Kd [4] of 0.67 µM and a Kd [5] of 0.74 µM.
